Assay results from publication PMC11620640 (2024).
Read-outs that look alike come from different tables or passages of the source.

Key:
[1] = target: T1, SARS-CoV-2 prototype (PT) spike receptor binding domain (RBD) (SARS-CoV-2, UniProt P0DTC2 319-541); assay: SPR
[2] = target: T1, SARS-CoV-2 prototype (PT) spike …; assay: SPR; remark: listed apart in the source

B1: raccoon dog ACE2 (rdACE2), peptidase domain (PD), wild type (receptor)
chain: QSTEDLVNTFLEKFNYEAEELSYQSSLASWNYNTNITDENLQKMNNAGAKWSAFYEEQSKLAKTYPLEEIQDSTVKRQLRALQHSGSSVLSADKNQRLNTILNSMSTIYSTGKACNPSNPQECLLLEPGLDDIMENSKDYNERLWAWEGWRSEVGKQLRPLYEEYVALKNEMARANNYEDYGDYWRGDYEEEWENGYNYSRNQLIDDVEHTFTQIMPLYQHLHAYVRTKLMDTYPSYISPTGCLPAHLLGDMWGRFWTNLYPLTVPFGQKPNIDVTNAMVNQSWDARKIFKEAEKFFVSVGLPNMTQGFWENSMLTEPSDSWKVVCHPTAWDLGRGDFRIKMCTKVTMDDFLTAHHEMGHIQYDMAYAAQPFLLRNGANEGFHEAVGEIMSLSAATPNHLKNIGLLPPSFFEDSETEINFLLKQALTIVGTLPFTYMLEKWRWMVFKGEIPKDQWMKTWWEMKRNIVGVVEPVPHDETYCDPASLFHVANDYSFIRYYTRTIYQFQFQEALCQIAKHEGPLHKCDISNSSEAGQKLLEMLKLGKSKPWTYALEIVVGAKNMDVRPLLNYFEPLFTWLKEQNRNSFVGWNTDWSPYADQS
Question: B1 was tested. Which Kd [1] did it give?
Answer: 70.7 nM

Question: And the Kd [2]?
Answer: 87.4 nM
